# Values quoted from earlier work, collected in publication PMC5413910.
# pKd: −log10 of the molar value.
# Target: linear (Met1-linked) diubiquitin (Homo sapiens) (UniProt P0CG48)
# OTULIN, sequence (Q96BN8 whole entry): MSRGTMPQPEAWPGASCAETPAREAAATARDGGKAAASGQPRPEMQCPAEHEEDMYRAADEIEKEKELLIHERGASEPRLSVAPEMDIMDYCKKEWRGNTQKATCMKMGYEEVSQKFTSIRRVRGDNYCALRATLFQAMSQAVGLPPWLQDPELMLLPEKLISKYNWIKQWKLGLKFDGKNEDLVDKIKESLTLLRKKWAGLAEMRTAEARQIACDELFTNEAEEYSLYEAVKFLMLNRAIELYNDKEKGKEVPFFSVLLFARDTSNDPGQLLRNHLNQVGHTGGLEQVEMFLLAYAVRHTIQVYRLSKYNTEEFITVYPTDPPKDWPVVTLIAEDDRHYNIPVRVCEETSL
substance,measurement,value
OTULIN (from UniProt Q96BN8),pKd,6.82
